16 sequences from the DeepSol protein solubility set can be followed below.

This series is described as follows: soluble on expression in E. coli; label from the status in PepcDB or PDB records.
Take “ESSDHLRLVAWYIPVKNSKRTVVLAHGFAGNKGLMGAWAGMYHELGYNVLVPDSRASGASQGKAVGYGWLERRDDLQWAKTVVHKTATTQIVMSGISMGAAGMTMASGERQLPQIKAYVVDSPFTSADAIISYQAGQLYHLPAFPLVNVTSLITKLRAGYSFKEADAVAQIRKNHLPIMIISGTRDDFVPTSMGKTLYRNAHQPKSLWLVKGAGHTTAITQNYQRYKRHVTAFLEQYVQ”: the “soluble on expression in E. coli” value is “not soluble”.

For “MGSDKIHHHHHHMSLEAPDLLRIRALPLFEAVNDGAFDRLMRGAFLQRFPRGSQLTTQGQPDNFLFVLLEGAIELEGSSSDRESTLALLWPSASLCLASIVLDGPSLMTARTTKGSLILMVPGDAFRQALEEDAGLGRAVAEELAGCFSGAVRSLKNNKLRTARERLVSYLLAQHQRQGGGAVVKLPCRKRVLASLLGMTPENLSRAFASLGPHGVEIDGSTVTLREPEGLAQLARPDPMIDNPIGESFSQAERERRRGGRTAIAAH”, the “soluble on expression in E. coli” value was “not soluble”.

For “MSLRTVDEKKEQVEKLIQSLDEGVKNFTYNPGRFKALLEMQALMPKYTFRNIMLARIQLPEAQFIASFNRWKELGRNVKKGERSLRILAPRFKKVKDEITGEEETKLIGFLGVPVFDVSQTEGDPLPADRIKLTLDGESQEAVDIFEWVKELAKEDDCPVTIKHADGANGYYSITNHAIVVDSKLSINHRAKTGVHELVHSRVHRNINGTTATERECVAEGVAFIVCSYFGLDTSDYSFEYVNGWSKDGGESLMKYGDIMQKTANLLIEDFERVAEKSQAQAAGEGEKNDSPISAEGHHHHHH”, the “soluble on expression in E. coli” value is reported as “soluble”.

For “GPGSMRGIARPTVATVGLSQQVVAFDEWVWALNELGGRESFRKNWRYYALRIDTVHFLMFVLDVLNGQALDEARQYLKEVTSHYHEVPLLVVFNNFREGHRRFDISEFEALIHLDKLRRRHGADVLSCVCDISVVHSKNRQLPRTLSSTLRTLSSLLKARSKSENGGDGGAPPVPKATTSFSASVVGGAAGDAAAGDGVVHS”, the “soluble on expression in E. coli” value is listed as “not soluble”.

For the sequence “MALICELDEQWSYVGSKARLHWLWYAYNTKTGGVLAYTFGPRTDQTCRELLALLTPFNIGMLTSDDWDSYGRVVPKNKHLTGKIFTQRIERNNLTLRTHIKRLARKQSASHAQLRSTKK”, the “soluble on expression in E. coli” value is recorded as “not soluble”.

For “MGSDKIHHHHHHMKNTELEQLINEKLNSAAISDYAPNGLQVEGKETVQKIVTGVTASQALLDEAVRLGADAVIVHHGYFWKGESPVIRGMKRNRLKTLLANDINLYGWHLPLDAHPELGNNAQLAALLGITVMGEIEPLVPWGELTMPVPGLELASWIEARLGRKPLWCGDTGPEVVQRVAWCTGGGQSFIDSAARFGVDAFITGEVSEQTIHSAREQGLHFYAAGHHATERGGIRALSEWLNENTDLDVTFIDIPNPA”, the “soluble on expression in E. coli” value is recorded as “not soluble”.

Consider “MGHHHHHHSHMFDAAFDPVLTVNSGDSVTVECVSGGVEVMPPAESPYAIPSALQAIHDSNPPRIGPHILTGPIAIAGAEPGDILEVRIEAIEPNNDWGYCAVRPLAGTLPEDFPERYVSHIAVDAQRGVCKPEWGPELPLAPFFGTMGVAPPAKYGRLSSREPREHGGNMDNKELVAGSTLYLPVWVPGANFSVGDGHGRQGDGEVCVNALEMGLTGTFTFVLHKKANGAADIAPFAWPRAETPTHYVLMGFHEDLDLAMKQALRQTIDFITARSNLTRVQAYQFCSLAVDFRVTQTVNGEKGVHALLSKGLLF”, for which the “soluble on expression in E. coli” value was “not soluble”.

In the case of “MSLEEWIKADSLEKADEYHKRYNYAVTNPVRRKILRMLDKGRSEEEIMQTLSLSKKQLDYHLKVLEAGFCIERVGERWVVTDAGKIVDKIRG”, the “soluble on expression in E. coli” value is “soluble”.

As for “SQTREDSVYLAKLAEQAERYEEMVENMKAVASSGQELSVEERNLLSVAYKNVIGARRASWRIVSSIEQKEESKEKSEHQVELIRSYRSKIETELTKISDDILSVLDSHLIPSATTGESKVFYYKMKGDYHRYLAEFSSGDAREKATNSSLEAYKTASEIATTELPPTHPIRLGLALNFSVFYYEIQNSPDKACHLAKQAFDDAIAELDTLSEESYKDSTLIMQLLRDNLTLWTSDISESGQEDQQQQQQQQQQQQQQQQQAPAEQTQGEPTK”, the “soluble on expression in E. coli” value was “soluble”.

“MGHHHHHHSHMEWKVKVRSDGTRYVAKRPVRDRLLKARALKIREERSGMTTDDDAVSEMKMGRYWSKEERKQHLIRAREQRKRREFMMQSRLECLREQQNGDSKPELNIIALSHRKTMKKRNKKILDNWITIQEMLAHGARSADGKRVYNPLLSVTTV”: the “soluble on expression in E. coli” value is “not soluble”.

For “DPDEDSDNSAIYVQGLNDSVTLDDLADFFKQCGVVKMNKRTGQPMIHIYLDKETGKPKGDATVSYEDPPTAKAAVEWFDGKDFQGSKLKVSLARKKPPMN”, the “soluble on expression in E. coli” value was “soluble”.

With “MSLEVIKHDGPGRLGVIRLEPPVQTPALAGVDFTLSPFNSFFYPKDYKEYDFNLAPAIPLSYYTPDEIIKKAVKRLWEVDYSKFNAFYFPALKRTKHYEELFKIIEENDFDAIYIGNSKSMIKDYRGFVFTMRELREKFPNAVLITDLEPFFYPLAVYLGIDAFDIRSLKIYSYEGLGFTQFSPIIWDEPKEDPVEYAKKIIRLIRIAIHEGKLRYLVENFLPTSMNAGILRIADRENIEYLEKYTPVDDKTVVFISDYSMTRPEVYRWAKRVRERFEPPKDIELLLILPCSAKKPYSRSRSHTLYRSAVKEALGEKMHRVHELIVTSPYGVVPREWEWIAKYDIVVTGHWSEREVRLAGELLADVLEKYPDIPIIAHVEGGYREAVKLAMELSGRDVIFTAKGNSTTSRESLANLTKTLKEFDVREGHHHHHH”, the “soluble on expression in E. coli” value was “not soluble”.

On to “MGSDKIHHHHHHMNSEASENRPAHSATGTLWSWHGGNGALIWQLMFSSDAVMGIKRFPQERKAAFFCLESSTGRVLRDDFVLTAGDENETPVGDGWMIGLETVHGSRLVCHTYQPGSPEHLGIWAINLPEARVVWSRPDLTFTANLGDAFLAYRSIVFAGFPERDYVLIDPLSGCELEHLGTAHERPNQLRDAAQSEEERQRILLPDTVFDEAGHVENINHGATSVTVFHRMEPVAEGVPGWVSTLSVSECERLVHEDVMASGEPMPVFNSFLIKDDRLYYIREREFLVSFVVS”, for which the “soluble on expression in E. coli” value is “not soluble”.

As to “GPGSMRRFPPPPPTRTCAHERVKHAVPIPFRVTCFWPAMSAAPSEAFAEAETMEQLRLKGNACFADDPAEAAKYYTQAVQLYEERHGEDAACSLDEFTKSAGNALTCLFKMGETEQCAALAVRVLASNPILAKANAFYGRCALVDPSLDSVSTGFGTASAAALVHLCRAIYELPALEPNTRENIDEALTRLIGERVSVTETFARSPEAGVKLVRGQCGVGVEAIRTLPPLVEVVSLLTPFSVGAFEDFAGKGCCVECSKPIGLDVADAAAEEPNEDDGDEENDKDEGNVKATKEKPSTCTACNMVVYCSPACADAHREQHERFECARMTRLSDMMQGIEARKLDVPEQFFELAYHCITTLAGIKAKRAGHERVLTLTAHVDEVIQSLHPIGPLMCDLFKGEERPATLYTIIGVLCCNALELADPSGLGVAQALHAGNSIASFFNHSCTPNCAIDTVRHAIVTTRTIHVGEELSIAYIPQLYWPTRLRRERLSESYYFVCRCQRCESSNKDPFERALSMELPTARREATKHFHPIVQTTCATVRSRMVGDVSQKDADELSKLLRELSTHLFPFHYLCHEVRNCLSFVYAVLGQTRECLCSCLDELLMWECILPGALPVKRMKIENALQCVQGFGANVSDCSAALLPHLSRLALVYDAEGPI”, the “soluble on expression in E. coli” value is on record as “not soluble”.

Turning to “DLTAIIGLEVHVQLETDTKIFCGCSTDTDDADPNTHTCPVCLGLPGALPTLNEGAVEAAVKLGKAIDADIPERTRFHRKNYFYPDLPKGFQITQYDAPICQDGELEVGTADDRRAIGIERAHLEEDPGSLQHVGGSIEDADYTLVDYNRAGTPLMEIVTRPDFRAAEEVRSFLAKLTSVLEYLGVFDAERDGSLRVDANISMVDSAELAGEGGPSDDVLEAANRTEVKNISSHRAAQKALAYETTRQRNQLER”, the “soluble on expression in E. coli” value is listed as “not soluble”.

Turning to “MGRGRKHTDAAAEQRELAIKANIVDEPFSVSAIDRSIRKAEWVKTETDQILSGRCPETDGTWLGISTRGRVAFLVEAGTINRDRFNGAESRTLEFLESNESPEDFAKSSAADYIRNKNTAAFHLIVADIASNSMLYISKPRFSDYGIVYTEPVGPGVHTLSSAGLDSDVGYRDLRMRHSFCEMINRERLPPIRDIAEIMYDPVKAYESVLLSSIFFVDMKIGYEHYGTRITTALVVKRTKEVLFFERYREIFNDDWDDHDFAFTII”, the “soluble on expression in E. coli” value was “not soluble”.
